# According to paper PMC5013604:
# Key:
# [1] = cycloheximide chase, western blot, MDA-MB-231; details: glycan lost; control: wild type
# [2] = western blot with GSK3β and β-TrCP overexpression; details: glycan lost; control: wild type (co-expressed)
# [3] = PD-L1 IP, anti-K48 ubiquitin blot, with MG132; details: glycan lost; control: MG132 without tunicamycin
substance,measurement,setting,value
"PD-L1 (programmed death ligand-1, B7-H1): 4NQ","degradation_or_half_life, half_life",[1],decreases
same,expression_or_secretion,[2],decreases
"PD-L1 (programmed death ligand-1, B7-H1): N192Q","degradation_or_half_life, half_life",[1],decreases
"PD-L1 (programmed death ligand-1, B7-H1): N35Q","degradation_or_half_life, half_life",[1],no change
"PD-L1 (programmed death ligand-1, B7-H1): tunicamycin",other: ubiquitination,[3],increases
"PD-L1 (programmed death ligand-1, B7-H1): N200Q","degradation_or_half_life, half_life",[1],decreases
"PD-L1 (programmed death ligand-1, B7-H1): N35/3NQ","degradation_or_half_life, half_life",[1],decreases
"PD-L1 (programmed death ligand-1, B7-H1): N219Q","degradation_or_half_life, half_life",[1],decreases
